test: label from the status in PepcDB records

**Q.** With “MDVPTPPPAEIYLAIQLPNPLSILVNYLPVSVTPIETLRGLVSTLEPTAINMDEFMTWPDFVLPETPFRTYFTLLLERGARPAIYLEGVRLACNFITVAHGLTMLSSISPIDAYACFSHGLFLTATGNGREVEAVNATFWDLVPSFEAANTVGELVMYHISRLHAEGTRLWNRSWRFVVSPDCLGRCSYGACCRNCFFYWYARELCIFY” as the sequence, how does the protein production read?
**A.** failed

**Q.** With “MDVQIHPMIIELAAFQAAKCGSVVGFGMVPSRNPSIKAASFFGIMVVTRSHVGESKDKGKEVEIAEPIESLILWLEELVAKQNKAMMRPMSDMMGAISRSTSHKLHDEQSTRDWSLPRSSTSTDDRSGHPVYRRKNRYDQVRYDAHQHYGNLTRLGKIDISRLDGIGIKEWLFKVEEFFGVDFTLQI” as the sequence, how does the protein production read?
**A.** failed

**Q.** With “MDVRQRLISSMVISLGLTIISEGIVLIGIASLLHISLFFIFPALVIFWLFQWIISPYVVGRGGYEVSPNDPQYGWLYNLVRRIAEESKIKPPRVFVIDAPYPNAFAYGNRLGGMRVGITLPLLNILDVDELTAVIAHEVGHIKHRDVEIGMTIGLIPTVLGYISTLLMNFGYLALFLAADEIELLFAIAALAIGFVIFVVTFILQIFVLWFNRLRESYADYNSFLVLGEGSKALATALAKIEIYMQNIRIDPFTGIIVTAPPVKVEEKDPHLLVEQWLRTKVSAFKDILSTHPYPARRAQMIYRLIYGSNI” as the sequence, how does the protein production read?
**A.** failed

**Q.** Which protein production does the source give for “MDVSFEFEHYQVRLIKSSDAVTIANYFMRNRHHLAPWEPKRSHAFFTPEGWKQRLLQLVELHKHNLAFYFVVVDKNEHKIIGTVSYSNITRFPFHAGHVGYSLDSEYQGKGIMRRAVNVTIDWMFKAQNLHRIMAAYIPRNEKSAKVLAALGFVKEGEAKKYLYINGAWEDHILTSKINDDWKPE” here?
**A.** failed

**Q.** Which protein production does the source give for “MDVSLPCIKIQVQTRYIEEQSNPEYQRFVFAYLITIKNLSSQTVQLMSRRWLITDADGKQTVVEGDGVVGEQPRIKANDEYTYSSGTALDTPVGVMQGQYLMIDEQGESFTVEIEPFRLAVPHVLN” here?
**A.** not failed

**Q.** For “MDWDDEYSHNSFDLHCLLNSFPGDLEFEQIFSDIDEKIEQNAASIKHCIKEIQSEINKQCPGVQLQTTTDCFEWLTNYNYSTSESSFISHGDLIKFFKTLQDLLKNEQNQEEMTLDLLWDLSCHSSVSFPSTLSGTSFHFLSRTSLHSVEDNSSMDVKSMWDDIRLHLRRFLVSKLQSHNEINNSQQKILLKKQCLQQLLFLYPESEVIIKYQNIQNKLLANLLWNCFPSYNRDSNLDVIAHGYQSTMLKLYSVIKEDFNTLCEILAPSSMVKFIKETYLDTVTEEMAKFLENFCELQFRENAVRVVKTSKSSSKHRGAVHALG”, which protein production is on record?
**A.** not failed

**Q.** Which protein production does the source give for “MDWYLKVLKNYVGFRGRARRKEYWMFILVNIIFTFVLGLLDKMLGWQRAGGEGILTTIYGILVFLPWWAVQFRRLHDTDRSAWWALLFLIPFIGWLIIIVFNCQAGTARRKPLWTRSKTGTLKQICSPDV” here?
**A.** failed

**Q.** With “MDWYVGTEWEDKNRGLAKKVIGLQFTEMDKPTIISTVEFSVNKKATNLGGRPSKYLVSDESATYPQKHSLEMGTSLTAVDCYLELLLQQFVPGETAACSITTKTGERIEFELKLEKIVKNTQVEKLSAAEIYEVALRLKESGVATFKTFPKFAFDYFVRAAKLLITYKPFDKLTKKTNGINGQAVEELFIQIQTNLAACLLQEKRYEHVIYHTQFVETEESPSEKSIYRRALAYYHLKEFAKAQATIERMPNYEEKREFSKLRDNIAVSWKDSKAHYKEVVQRMFS” as the sequence, how does the protein production read?
**A.** failed

**Q.** Which protein production does the source give for “MDYCYTGDTHEKLFAAYRADEEPFPTQTQMEFPRREHRRPEIDILKRLFFPTCWNAAELVRDELAVLDRLDTLGGLFFAGIRPYSGSDPAETVDAVIDQLPAVRTRLKKDVEAAFKGDPAAKTYMEIIRSYPGFMAILVQRVAHTLYEAGASEYARELTEYAKTETGIDIHPGAEIGDHFFIDHGTGVVIGETTTVGEWVRLYQDVTLGALHFEADESDEHRLKKGYKRHPDIGDHVVIGAGTKVLGAISVGDHVSIGANSWVTDDIPDDTKVYVTDHPTQERKRTN” here?
**A.** failed

**Q.** With “MDYNKTAKDILKLLGGEKNVMSAAHCATRLRLVLKNEKEARTKEIEKLDGVKGVFSSSGQYQIIIGQGSVNKVYKAFVEGTGISESSLSDTKKAAMKNM” as the sequence, how does the protein production read?
**A.** not failed

**Q.** Which protein production does the source give for “MDYPNQTSSALFHSSEPLGLNLVDYLRVLLSQYWLIIGIAIGATSLTFGVSLLLPQKFRATATLQIERDVPKVMNVDNLIPVESPLDRDFYQTQYQLLQSRSLARAVIRKMNLGREPMFKPLVDKVLSKVQSLPVNTRNTAIESALIEMMLNSLKIEPILNSRLVYVHFDSHDPTLSAKVANAYAKMFIENNQQRRSNAFSFAMKYLAGRLEQLRIKVDKSERNVVAYSTDEKIVSVGDEKPSLSAQNLSDLNALLASAQNERIRAEASWRQASIGDGLSIPQVLSNLLVQSLRTDQANMVNEYQQKLSMFKPEYPEMQRLKARIKENTKQINAEVFNIRQSLKAQYEAALRQENLLNDRIAVLEKDELDLKTRLIRYNLLEREAETDRQLYDALLQRYKEISVLGDVGSNNVTVVDAADIPSRPISPNLLMNTILGGIFGVFLGLTVAMVRYSMHGAKRINVMSVE” here?
**A.** failed

**Q.** For “MEAARSMTFSECAALYIKAHRSSWKNTKHADQWTNTIKTYCGPVIGPLSVQDVDTKLIMKVLDPIWEQKPETASRLRGRIESVLDWATVRGYREGDNPARWRGYLEHHHHHH”, which protein production is on record?
**A.** not failed

**Q.** Which protein production does the source give for “MEAFTFNTTELILLSATGVLLIIQLIYYLGLYNRIHTHNLAVGKDEVHFGRELPPLSVVICARNESENLRRNLPTILKQDYPDFEVIVINDGSTDESEDLLSALEEEYPNLYHSFTPDSARYISRKKLALTLGIKASKHDWLVFTEADCAPVSNQWLRRMARNFTSSTDIVLGYSGYERGKGWLHKRASFDSLFTSLRYLGFALAGKPYMGIGRNLAYRKELFFKVKGFSTHLNMQRGEDDLFINQVANENNTRVETSPDAVIRMQPVERYKDWKEEKVSYMATSRFYKGSQRWLLGLETGTRLLFYAACLVGIVFGILSFHWLVVGLSLLLWFVRYSVQAYVINKTAGEMGDNRSYYFTLPVFDIIRPLQTLKLKLYRLYRGKGDFMRR” here?
**A.** failed

**Q.** Which protein production does the source give for “MEAKKYQAFWRGAIILTIASFVTKVLSAFYRIPYQNIAGDVGFYIYQQIYPFYGFCLILATYGFPVIISKMVAERLERGKQKEAEEIICVSFWFLLGIGFIGFFTLFFGAETIAVAMGDIHLDKLLRVISFSFLLMPFLSVARGYFQGFNNMMPTAVSQVIEQTIRVSIIVFLSLFLIAHGFDLYTVGAGAMLGSIAGGLIGIIVLILYMRQDFRSIFFKSAARIKGKRKIVKILFWQGLAICVSNLVLIFIQMADSVSFYSLLIGAGEQAENAKVLKGVYDRSIPLMQLGTVVTTSFSLSLIPIITAAKERGDLSFIQEKVKLAMKITFVIGLAAAIGLTCIIQPTNIMLFENSDGSDVLSILSLSILFSSLSITTASILQGLGQTFKPALFVVFAGCLKLALNYIFMPYFGVKGAAFATLCALIIISGLNSLLLTRAVSGSLINKRNMLGIVISGICMGFVLMMFTRVLQMSGLVINTEHRGSATLEALLGVAIGGLTYMFFILKLRVFTKKELGTVMKQEKKEGSLKKSG” here?
**A.** failed

**Q.** Which protein production does the source give for “MEALAMAGVDYQEWGLSIEEWELQESVVPLHLLADDFKEEEQEEDHQDNDDDDRVLDGLAVKQSVTRDIRASVGKFIEQSMSHMIVHLKQLKFLTLLLENFLFTHVLDFLL” here?
**A.** failed

**Q.** For “MEALKRKIEEEGVVLSDQVLKVDSFLNHQIDPLLMQRIGDEFASRFAKDGITKIVTIESSGIAPAVMTGLKLGVPVVFARKHKSLTLTDNLLTASVYSFTKQTESQIAVSGTHLSDQDHVLIIDDFLANGQAAHGLVSIVKQAGASIAGIGIVIEKSFQPGRDELVKLGYRVESLARIQSLEEGKVSFVQEVHS”, which protein production is on record?
**A.** not failed

**Q.** Which protein production does the source give for “MEANTSSSGTVTGQRFAERRRSLPPGAELRQRLLKQLKELCDQIGKAYSTLVQKAALVIEPADQAVSLEPDTQRQATCITNLSDEGELWTTVYELNLGVQNLLMFIEDIRLLLLTQAQVPGPSVEENGLKTAGKGGCSPTELEGARFSDRLSSSNTHRFLEQLWDRYTP” here?
**A.** not failed

**Q.** With “MEASMERFDNAPETALAWHRQGLGAALATVVETWGSAPRRVGAQLVIGGDGRIEGSVSGGCVEGAVIVEALEALEEGQARLLEFGVSDEDAFAVGLACGGTIRVLVEPVGQVLSEVMLAELVAARASRQALAYVVDTARGTRALVRDAYPERMRMDRSGFDEDGRTFVAVHNPPLRLIVVGAVHIAQALVPMARIAGYDPVVIDPREAFASDARFPGETILHDWPDEAVAKLGLDARTALVLLTHDPKLDDPALEAALAADVFYIGALGSTRTHAKRVARMQEAGFTEAQIGRIHGPVGLDIGAAGPAEIAVAILAQMTAVLRGRA” as the sequence, how does the protein production read?
**A.** not failed

**Q.** For “MEATKERVGLLDTILPPALADAGLEDCALPPESIQEAFRKAANAVKSRAASIFDHEEEDGCLADPIPETADKIIVGGDNERDTGPCLAGKGIEKLAESKQAGDLVVAGEGEEGKSCVDGLKDLDVEGIERSSEKKDQSDEDEEEEMKPILVEGFV”, which protein production is on record?
**A.** failed

**Q.** For “MEAVIFDMDGVLMDTEPLYFEAYRRVAESYGKPYTEDLHRRIMGVPEREGLPILMEALEIKDSLENFKKRVHEEKKRVFSELLKENPGVREALEFVKSKRIKLALATSTPQREALERLRRLDLEKYFDVMVFGDQVKNGKPDPEIYLLVLERLNVVPEKVVVFEDSKSGVEAAKSAGIERIYGVVHSLNDGKALLEAGAVALVKPEEILNVLKEVL”, which protein production is on record?
**A.** not failed

**Q.** Which protein production does the source give for “MECRPLCIDDLELVCRHREAMFREAGRDALTLAAMQDPFRDWLLPRLADGSYFGWVMEEGGAPLAGIGLMVIEWPPHPSHPLQDKRGYILNLYVDPSHRERGIGQALMNRAEAEFAERGIAFAVLHATEMGQPLYARMGWSPTTEMSKPIAG” here?
**A.** not failed

**Q.** For “MEDERIKLLFKEKALEILMTIYYESLGGNDVYIQYIASKVNSPHSYVWLIIKKFEEAKMVECELEGRTKIIRLTDKGQKIAQQIKSIIDIMENDT”, which protein production is on record?
**A.** not failed

**Q.** For “MEDGVTPPLLITEKDTTMIRVKEEVKKQLWLSAPLIGVSLLQYSLQVISVMFVGHLGSLPLSAASIATSFASVTGFTFLLGTASALETLCGQAYGAKLYGKLGIQMQRAMFVLLILSVPLSIIWANTEQILVLVHQDKSIASVAGSYAKYMIPSLFAYGLLQCINRFLQAQNNVFPVFVCSGITTCLHLLLCWLFVLKTGLGYRGAALAISVSYWFNVILLSCYVKFSPSCSHSWTGFSKEAFQELYDFSKIAFPSAVMVCLELWSFELLVLASGLLPNPVLETSVLSICLNTSLTIWQISVGLGGAASIRVSNELGAGNPQVAKLAVYVIVGIAVAEGIVVVTVLLSIRKILGHAFSSDPKIIAYAASMIPIVACGNFLDGLQCVLSGVARGCGWQKIGACVNLGSYYLVGVPLGLLLGFHFHIGGRGLWLGIVTALSVQVLCLSLVTIFTNWDKEAKKATNRVGSSDDKDGDVQ”, which protein production is on record?
**A.** failed

**Q.** With “MEDKRNRGRRITDRITEAYYELMKIVAENNHERMFEYYVEDDEAYIFKIVNSSPAQETVYPFFKQNIDTYMSECPADSIECFKKQLDKCLLRPMRTAFQLSFISEDGKSRPVEMYMVSIPDLDKKVCMVVGVMFDIRDEKGLLDSLTGTYNHLAFENKCTSLIRQKGTKLLFVMLDVDDFKIVNDTLGHNVGDRVLSQTGQVLKEAVGANGIVGRLGGDEFAAIVFGLEDSDAVDEFCVKLSGRLKNIIFDMEYSASIGMTTGDDRELTFKDLYYEADQAMYYSKRQGKNRISFFNSIRKNDITVPHNSCAPSITDVSCRMSDREIFSYDEMPDYILAVDEESRRIVFVNKAIRNSSVMTASQIDEFISKPFEDGFIDLFLRKKEQGNRVSVFQERIIPTI” as the sequence, how does the protein production read?
**A.** failed

**Q.** With “MEDLSDVFDIYAICACCKVAPTSEGTKNEPFSPRTFRGLGNKGTLPWKCNSVDMKYFRSVTTYVDESKYEKLKWKRERYLRMEASQGGGDNTSGGDNNADKLQNVVVMGRSNWESIPKQYKPLPNRINVVLSKTLTKEDVKEKVFIIDSIDDLLLLLKKLKYYKCFIIGGAQVYRECLSRNLIKQIYFTRINGAYPCDVFFPEFDESQFRVTSVSEVYNSKGTTLDFLVYSK” as the sequence, how does the protein production read?
**A.** not failed
